From patent US20140031525A1, “MUTANT G-PROTEIN COUPLED RECEPTOR PROTEINS AND METHODS FOR PRODUCING THEM” (Heptares Therapeutics Limited, priority 2011, published 2014) come the findings set out here.

Series [1] in a line: Thermostability assay of detergent-solubilised receptor by [3H]-ZM241385 binding. In kind it is physicochemical, human. To be noted: in 0.1% decylmaltoside, 30 min heating. On the procedure: FIG. 1: Thermostability of the adenosine A2A receptor alone, in combination with T4 lysozyme fusion or with thermostabilising mutations. Receptors were solubilised from transiently transfected cells using 0.025% DDM. Samples were heated at the specified temperature for 30 minutes, quenched on ice and the amount of receptor remaining was determined by a single-point binding assay using 100 nM [^3H]-ZM-241,385. Data is shown for the wild type A2a receptor (circles), A2A-T4L (squares), A2A-StaR1 (previously Rant21, upright triangles), A2A-T4 engineered to include the A2A-StaR1 mutations in combination with the T4L fusion (A54L^2.52/T88A^3.36/K122A^4.43 N239A^6.41) (inverted triangles) and vs A2a-StaR2 (diamonds).
Transfected HEK293T cells were resuspended in ice cold buffer [50 mM Tris pH7.4; 400 mM NaCl; 1% DDM and protease inhibitors (Complete, Roche)]. After incubation for 1 h at 4° C., samples were centrifuged (16,000×g, 20 min, 4° C.) and the supernatant was detergent exchanged into 0.1% decylmaltoside (DM) from Ni-NTA resin.
Thermostability was assessed by incubating with [^3H]-ZM241385 radioligand (100 nM) at increasing temperatures for 30 min followed by a 5 minutes incubation on ice. Receptor bound and free radioligand were separated by gel filtration as previously described'

The subject of series [2] is G proteins. Put plainly: G protein activation by the engineered receptor. Type of series: biochemical.

B1: A2A-StaR2: human adenosine A2A receptor with mutations A54L, T88A, K122A, V239A, R107A, L202A, L235A, S277A (protein, UniProt P29274 1-412, looked up, variant A54L T88A K122A V239A R107A L202A L235A S277A)
Adenosine receptor A2a: MPIMGSSVYITVELAIAVLAILGNVLVCWAVWLNSNLQNVTNYFVVSLAAADILVGVLAIPFAITISTGFCAACHGCLFIACFVLVLAQSSIFSLLAIAIDRYIAIAIPLRYNGLVTGTRAAGIIAICWVLSFAIGLTPMLGWNNCGQPKEGKNHSQGCGEGQVACLFEDVVPMNYMVYFNFFACVLVPLLLMLGVYLRIFAAARRQLKQMESQPLPGERARSTLQKEVHAAKSAAIIAGLFALCWLPLHIINCFTFFCPDCSHAPLWLMYLAIVLAHTNSVVNPFIYAYRIREFRQTFRKIIRSHVLRQQEPFKAAGTSARVLAAHGSDGEQVSLRLNGHPPGVWANGSAPHPERRPNGYALGLVSGGSAQESQGNTGLPDVELLSHELKGVCPEPPGLDDPLAQDGAGVS
With B1, in series [1], the apparent thermostability turned out to be 47 °C. Further, the G protein activation result in series [2] is “no longer activated G proteins”.
